Reference: patent publication US20210284709A1 (JUNO THERAPEUTICS, published 2021)
Residue numbers refer to the chain shown, from its start.

B1: TCR 46 (codon-optimized, cysteine-modified) (TCR, V domains shown)
V domain 1: AQSVTQLDSQVPVFEEAPVELRCNYSSSVSVYLFWYVQYPNQGLQLLLKYLSGSTLVKGINGFEAEFNKSQTSFHLRKPSVHISDTAEYFCAVSPSSGTYKYIFGTGTRLKVLA
V domain 2: GAGVSQTPSNKVTEKGKYVELRCDPISGHTALYWYRQSLGQGPEFLIYFQGTGAADDSGLPNDRFFAVRPEGSVSTLKIQRTERGDSAVYLCASSLYLGGSETQYFGPGTRLLVLE
B2: TCR 37 (codon-optimized, cysteine-modified) (TCR, V domains shown)
V domain 1: ELKVEQNPLFLSMQEGKNYTIYCNYSTTSDRLYWYRQDPGKSLESLFVLLSNGAVKQEGRLMASLDTKARLSTLHITAAVHDLSATYFCAGYSGAGSYQLTFGKGTKLSVIP
V domain 2: GAGVSQSPRYKVAKRGQDVALRCDPISGHVSLFWYQQALGQGPEFLTYFQNEAQLDKSGLPSDRFFAERPEGSVSTLKIQRTQQEDSAVYLCASSLLLGAYGYTFGSGTRLTVVE
B3: TCR 43 (codon-optimized, cysteine-modified) (TCR, V domains shown)
V domain 1: QKEVEQNSGPLSVPEGAIASLNCTYSDRGSQSFFWYRQYSGKSPELIMFIYSNGDKEDGRFTAQLNKASQYVSLLIRDSQPSDSATYLCAVNVPTSGTYKYIFGTGTRLKVLA
V domain 2: EPEVTQTPSHQVTQMGQEVILRCVPISNHLYFYWYRQILGQKVEFLVSFYNNEISEKSEIFDDQFSVERPDGSNFTLKIRSTKLEDSAMYFCASTPRDSYEQYFGPGTRLTVTE
B4: TCR 48 (codon-optimized, cysteine-modified) (TCR, V domains shown)
V domain 1: QKEVEQDPGPLSVPEGAIVSLNCTYSNSAFQYFMWYRQYSRKGPELLMYTYSSGNKEDGRFTAQVDKSSKYISLFIRDSQPSDSATYLCAMRIQGAQKLVFGQGTRLTINP
V domain 2: B3 V domain 2 with P96G, D98V
B5: TCR 36 (codon-optimized, cysteine-modified) (TCR, V domains shown)
V domain 1: RKEVEQDPGPFNVPEGATVAFNCTYSNSASQSFFWYRQDCRKEPKLLMSVYSSGNEDGRFTAQLNRASQYISLLIRDSKLSDSATYLCVVNRDNYGQNFVFGPGTRLSVLP
V domain 2: B3 V domain 2 with S94M, P96G, D98S, S99N
B6: TCR 40 (codon-optimized, cysteine-modified) (TCR, V domains shown)
V domain 1: GQQVMQIPQYQHVQEGEDFTTYCNSSTTLSNIQWYKQRPGGHPVFLIQLVKSGEVKKQKRLTFQFGEAKKNSSLHITATQTTDVGTYFCAGRNNFNKFYFGSGTKLNVKP
V domain 2: B3 V domain 2 with S94I, P96A, D98S
B7: TCR 47 (codon-optimized, cysteine-modified) (TCR, V domains shown)
V domain 1: QKEVEQNSGPLSVPEGAIASLNCTYSDRGSQSFFWYRQYSGKSPELIMFIYSNGDKEDGRFTAQLNKASQYVSLLIRDSQPSDSATYLCAVNLLSGSARQLTFGSGTQLTVLP
V domain 2: B3 V domain 2 with S94M, P96G, D98T, S99T
B8: TCR 49 (codon-optimized, cysteine-modified) (TCR, V domains shown)
V domain 1: B3 V domain 1 with V93I, P94G
V domain 2: B3 V domain 2 with D98Y
B9: TCR 42 (codon-optimized, cysteine-modified) (TCR, V domains shown)
V domain 1: B6 V domain 1 with R92P, N93D
V domain 2: B3 V domain 2 with S94K, P96S, D98S
B10: TCR 33 (codon-optimized, cysteine-modified) (TCR, V domains shown)
V domain 1: B3 V domain 1 with V93A, P94H, T95H, S96T, T98G, Y99F, Y101T, T105A, K110F, L112K
V domain 2: B3 V domain 2 with S99T
B11: TCR 45 (codon-optimized, cysteine-modified) (TCR, V domains shown)
V domain 1: GQQVMQIPQYQHVQEGEDFTTYCNSSTTLSNIQWYKQRPGGHPVFLIQLVKSGEVKKQKRLTFQFGEAKKNSSLHITATQTTDVGTYFCAGSSGAGSYQLTFGKGTKLSVIP
V domain 2: GAGVSQSPSNKVTEKGKDVELRCDPISGHTALYWYRQRLGQGLEFLIYFQGNSAPDKSGLPSDRFSAERTGESVSTLTIQRTQQEDSAVYLCASSLYLGTTGELFFGEGSRLTVLE
B12: TCR 35 (codon-optimized, cysteine-modified) (TCR, V domains shown)
V domain 1: KDQVFQPSTVASSEGAVVEIFCNHSVSNAYNFFWYLHFPGCAPRLLVKGSKPSQQGRYNMTYERFSSSLLILQVREADAAVYYCAVAGDYKLSFGAGTTVTVRA
V domain 2: DSGVTQTPKHLITATGQRVTLRCSPRSGDLSVYWYQQSLDQGLQFLIQYYNGEERAKGNILERFSAQQFPDLHSELNLSSLELGDSALYFCASTTSGDSSYNEQFFGPGTRLTVLE
B13: TCR 34 (codon-optimized, cysteine-modified) (TCR, V domains shown)
V domain 1: ELKVEQNPLFLSMQEGKNYTIYCNYSTTSDRLYWYRQDPGKSLESLFVLLSNGAVKQEGRLMASLDTKARLSTLHITAAVHDLSATYFCAVSGTYKYIFGTGTRLKVLA
V domain 2: ETGVTQSPTHLIKTRGQQVTLRCSSQSGHNTVSWYQQALGQGPQFIFQYYREEENGRGNFPPRFSGLQFPNYSSELNVNALELDDSALYLCASSSYAGSYEQYFGPGTRLTVTE
B14: TCR 39 (codon-optimized, cysteine-modified) (TCR, V domains shown)
V domain 1: GQQLNQSPQSMFIQEGEDVSMNCTSSSIFNTWLWYKQEPGEGPVLLIALYKAGELTSNGRLTAQFGITRKDSFLNISASIPSDVGIYFCAGYSSSNDYKLSFGAGTTVTVRA
V domain 2: EPEVTQTPSHQVTQMGQEVILRCVPISNHLYFYWYRQILGQKVEFLVSFYNNEISEKSEIFDDQFSVERPDGSNFTLKIRSTKLEDSAMYFCASTPRDRGKEAFFGQGTRLTVVE
B15: TCR 44 (codon-optimized, cysteine-modified) (TCR, V domains shown)
V domain 1: GQNIDQPTEMTATEGAIVQINCTYQTSGFNGLFWYQQHAGEAPTFLSYNVLDGLEEKGRFSSFLSRSKGYSYLLLKELQMKDSASYLCAQYSGGYQKVTFGTGTKLQVIP
V domain 2: DSGVTQTPKHLITATGQRVTLRCSPRSGDLSVYWYQQSLDQGLQFLIQYYNGEERAKGNILERFSAQQFPDLHSELNLSSLELGDSALYFCASSGTPDTQYFGPGTRLTVLE
B16: TCR 41 (codon-optimized, cysteine-modified) (TCR, V domains shown)
V domain 1: RKEVEQDPGPFNVPEGATVAFNCTYSNSASQSFFWYRQDCRKEPKLLMSVYSSGNEDGRFTAQLNRASQYISLLIRDSKLSDSATYLCVVTFALTGGFKTIFGAGTRLFVKA
V domain 2: EPEVTQTPSHQVTQMGQEVILRCVPISNHLYFYWYRQILGQKVEFLVSFYNNEISEKSEIFDDQFSVERPDGSNFTLKIRSTKLEDSAMYFCASNPRDRVSYEQYFGPGTRLTVTE

The binders below were run against T1, HLA-A2/E7(11-19) tetramer (human; HPV 16) (assay: flow cytometry, tetramer + anti-CD8; transfected mix of CD8- and CD8+ Jurkat-derived cells;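 note: cells transiently transfected with TCR-encoding plasmids, analysed 48 h afterwards by co-staining with HLA-A*02:01 peptide tetramer and anti-CD8 antibody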).
T1 construct: also called E7(11-19) peptide-MHC tetramer; E7 tet
Procedure: For transfection, the CD4+ and CD4+/CD8+ cell mixtures were transiently transfected with TCR-encoding plasmids and 48 hours after transfection, cells were assessed by flow cytometry for (1) binding of the target peptide in the context of an MHC molecule (HLA:A02:01) by staining with an E6(29-38) peptide- or an E7(11-19) peptide-MHC tetramer reagent, and/or (2) CD8+ independent binding of the target by co-staining the tetramer-labeled cells with an anti-CD8 antibody.
In the case of B1, the “% cells E7 tet+/CD8+ quadrant” value is reported as 1.27% and the “% cells E7 tet+/CD8- quadrant” value is reported as 1.21%. With B2 the “% cells E7 tet+/CD8+ quadrant” value was 25.5% and the “% cells E7 tet+/CD8- quadrant” value was 19.5%. For B3, the “% cells E7 tet+/CD8+ quadrant” value was 3.82% and the “% cells E7 tet+/CD8- quadrant” value was 1.88%. B4 was tested, and the “% cells E7 tet+/CD8+ quadrant” value was 5.36% and the “% cells E7 tet+/CD8- quadrant” value was 1.29%. For B5, the “% cells E7 tet+/CD8+ quadrant” value was 23.4% and the “% cells E7 tet+/CD8- quadrant” value was 16.7%. In the case of B6, the “% cells E7 tet+/CD8+ quadrant” value is reported as 7.84% and the “% cells E7 tet+/CD8- quadrant” value is reported as 1.37%. In the case of B7, the “% cells E7 tet+/CD8+ quadrant” value is reported as 1.98% and the “% cells E7 tet+/CD8- quadrant” value is reported as 0.71%. In the case of B8, the “% cells E7 tet+/CD8+ quadrant” value is reported as 5.54% and the “% cells E7 tet+/CD8- quadrant” value is reported as 3.06%. In the case of B9, the “% cells E7 tet+/CD8+ quadrant” value is reported as 1.21% and the “% cells E7 tet+/CD8- quadrant” value is reported as 1.65%. In the case of B10, the “% cells E7 tet+/CD8+ quadrant” value is reported as 22.6% and the “% cells E7 tet+/CD8- quadrant” value is reported as 14%. With B11 the “% cells E7 tet+/CD8+ quadrant” value was 22.4% and the “% cells E7 tet+/CD8- quadrant” value was 16.9%. For B12, the “% cells E7 tet+/CD8+ quadrant” value was 14.5% and the “% cells E7 tet+/CD8- quadrant” value was 7.18%. In the case of B13, the “% cells E7 tet+/CD8+ quadrant” value is reported as 26.3% and the “% cells E7 tet+/CD8- quadrant” value is reported as 26%. For B14, the “% cells E7 tet+/CD8+ quadrant” value was 12.3% and the “% cells E7 tet+/CD8- quadrant” value was 2.61%. For B15, the “% cells E7 tet+/CD8+ quadrant” value was 2.96% and the “% cells E7 tet+/CD8- quadrant” value was 1.43%. B16 was tested, and the “% cells E7 tet+/CD8+ quadrant” value was 6.07% and the “% cells E7 tet+/CD8- quadrant” value was 2.41%.
